From the DeepSol protein solubility set

Experiment: soluble on expression in E. coli; label from the status in PepcDB or PDB records

**Q.** Which “soluble on expression in E. coli” value does the source give for “MGSDKIHHHHHHSKDKKSTDTKQTETKKTAKTDGTMTDGTYKLEEKNFDDKGWKGFMSIEVKDGKITKANYDYKNKDGKLKSEDADYEKAMKDKVGTGPQEYLKQLSDSLVKGQSASSVEVVSGATHSSDAFINYANQLIQAAQKADTTTISINNLAKMEDGTYKLEEQNYAHGYRVVFSMDVKDGKITKSDYNYVDKDGKLKSDDADYEKNMKAKSGTGPKEYIPALNKSLVEKQDVAAVDTVSGATNSSNQFKIYAAQLQNAAQNGNTDTIKVYNLVEAE” here?
**A.** The value was “not soluble”.

**Q.** Which “soluble on expression in E. coli” value does the source give for “MTDVKNDVNVSSVVDADGLIEGNYDQVVESFDDMELKEELLRGIYGFGFEKPSAIQKRAIVPCTTGKDVIAQAQSGTGKTATFSVSILQRIDHEDPHVQALVMAPTRELAQQIQKVMSALGEYLNVNILPCIGGTSVRDDQRKLEAGIHVVVGTPGRVGDMINRNALDTSRIKMFVLDEADEMLSRGFKDQIYEVFRSMPQDVQVVLLSATMPSEVLDVTNRFMRNPIRILVKKDELTLEGIRQFYINVQKDEWKFDCLCDLYNVVNVTQAVIFCNTRRKVDTLTEKMTENQFTVSCLHGDMDQAERDTIMREFRSGSSRVLITTDILARGIDVQQVSLVINYDLPSNRENYIHRIGRSGRFGRKGVAINFVTENDARQLKEIESYYTTQIEEMPESIADLI” here?
**A.** Its value is “not soluble”.

**Q.** With “DGTSQLAELVDAAAERLEVADPVAAFKWRAQLPIEDSGRVEQQLAKLGEDARSQHIDPDYVTRVFDDQIRATEAIEYSRFSDWKLNPASAPPEPPDLSASRSAIDSLNNRMLSQIWSHWSLLSAPSCAAQLDRAKRDIVRSRHLDSLYQRALTTATQSYCQALPPA” as the sequence, how does the “soluble on expression in E. coli” value read?
**A.** Its value is “soluble”.

**Q.** With “MNDPMGETGFSRESAPEIVFSETDMAAAEQLMHLSEEETVSCSSSTGGDCGGGGGDKIKHEYVSSRIGNELNDGVRGNSILGVEKKRKRTVMKEKKFRSLESIYKGTKEIRD” as the sequence, how does the “soluble on expression in E. coli” value read?
**A.** The value was “not soluble”.

**Q.** With “MAHHHHHHMAPGVIPTVFRSERDREWAAQRFNYKKGSDDEERVARKRLLFARDRVHLPDDTVVETIRSPTEQLEELRALREHPPMHLLSEQLNSIAEESHRYAAALAAAAAAQPADPKDVASPASLRSDAAATSSLDGVALPPLPGAAAVVSSPPQVEIQFEDRSLFATAAILFRDRDDRVVRAMRFIGACGMVWKEVA” as the sequence, how does the “soluble on expression in E. coli” value read?
**A.** The value was “soluble”.

**Q.** With “MTDNLLSISAACLFDDQGNLLLVRKRGTQAFMLPGGKREPGETPLAALQRELLEELRLPMGASTFEHLGSFQAPAANEANTRVDADIYVARLPHAVCAQAELEELAWLVPGQAQPDNLAPLLRDHVLPALARRAAENPETQAEHRTRPDHVR” as the sequence, how does the “soluble on expression in E. coli” value read?
**A.** The value was “not soluble”.

**Q.** Which “soluble on expression in E. coli” value does the source give for “MSLSPAPTTMDFTPAPLEDTSSRPQFCKWPCECPPSPPRCPLGVSLITDGCECCKMCAQQLGDNCTEAAICDPHRGLYCDYSGDRPRYAIGVCAQVVGVGCVLDGVRYNNGQSFQPNCKYNCTCIDGAVGCTPLCLRVRPPRLWCPHPRRVSIPGHCCEQWVCEDDAKRPRKTAPRDTGAFDAVGEVEAWHRNCIAYTSPWSPCSTSCGLGVSTRISNVNAQCWPEQESRLCNLRPCDVDIHTLIKAGKKCLAVYQPEASMNFTLAGCISTRSYQPKYCGVCMDNRCCIPYKSKTIDVSFQCPDGLGFSRQVLWINACFCNLSCRNPNDIFADLESYPDFSEIANEGHHHHHH” here?
**A.** Its value is “not soluble”.

**Q.** With “MSLARPNSKASIGTVFQDRAARYGDRVFLKFGDQQLTYRDANATANRYAAVLAARGVGPGDVVGIMLRNSPSTVLAMLATVKCGAIAGMLNYHQRGEVLAHSLGLLDAKVLIAESDLVSAVAECGASRGRVAGDVLTVEDVERFATTAPATNPASASAVQAKDTAFYIFTSGTTGFPKASVMTHHRWLRALAVFGGMGLRLKGSDTLYSCLPLYHNNALTVAVSSVINSGATLALGKSFSASRFWDEVIANRATAFVYIGEICRYLLNQPAKPTDRAHQVRVICGNGLRPEIWDEFTTRFGVARVCEFYAASEGNSAFINIFNVPRTAGVSPMPLAFVEYDLDTGDPLRDASGRVRRVPDGEPGLLLSRVNRLQPFDGYTDPVASEKKLVRNAFRDGDCWFNTGDVMSPQGMGHAAFVDRLGDTFRWKGENVATTQVEAALASDQTVEECTVYGVQIPRTGGRAGMAAITLRAGAEFDGQALARTVYGHLPGYALPLFVRVVGSLAHTTTFKSRKVELRNQEGHHHHHH” as the sequence, how does the “soluble on expression in E. coli” value read?
**A.** The value was “not soluble”.

**Q.** With “MVITLSRLYVHPVKSMRGLQLSHAQVSRSGLAFDRVFMITEPDGMFITARQYPKMVMFTPALMADGLYLTAPDGESASIRFNDFLANPAPTEVWGNHFTALIAPEAINSWLSGYFQRDVQLRWVGTELTRRVKPLPEVPLSFADGFPYLLINEASFKDLQQRCPASIKLEQFRPNLVITGTTAFAEDCWQVIRIGDITFDLVKPCSRCVLTTVSVERGQKHPAGEPLRTLQTFRTAENGDVDFGQNMVARNSGIIRVGDEVEVLITKPPRPYGAGAVVESLSAPQDQSKTVSIEYNGIRFNGNNQQILLEQLEQQNIRIPYSCRAGICGSCRVTLLTGDVAALKKSAVGNDGTILCCSCIPKGDISLSGK” as the sequence, how does the “soluble on expression in E. coli” value read?
**A.** The value was “not soluble”.

**Q.** Which “soluble on expression in E. coli” value does the source give for “HHHHHHMVRAIDEDCSQYEPIPGSQKAALGYNILTQEDAQSVYDASYYGGQCETVYNGEWRELRYDSTCERLYYGDDEKYFRKPYNFLKYHFEALADTGISSEFYDNANDLLSKVKKDKSDSFGVTIGIGPAGSPLLVGVGVSHSQDTSFLNELNKYNEKKFIFTRIFTKVQTAHFKMRKDDIMLDEGMLQSLMELPDQYNYGMYAKFINDYGTHYITSGSMGGIYEYILVIDKAKMESLGITSRDITTCFGGSLGIQYEDKINVGGGLSGDHCKKFGGGKTERARKAMAVEDIISRVRGGSSGWSGGLAQNRSTITYRSWGRSLKYNPVVIDFEMQPIHEVLRHTSLGPLEAKRQNLRRALDQYLM” here?
**A.** Its value is “soluble”.

**Q.** Which “soluble on expression in E. coli” value does the source give for “MGQTLFDKVWNRHVLYGKLGEPQLLYIDLHLIHEVTSPQAFEGLRLQNRKLRRPDLTFATLDHNVPTIDIFNIKDEIANKQITTLQKNAIDFGVHIFDMGSDEQGIVHMVGPETGLTQPGKTIVCGDSHTATHGAFGAIAFGIGTSEVEHVFATQTLWQTKPKN” here?
**A.** Its value is “not soluble”.

**Q.** Which “soluble on expression in E. coli” value does the source give for “PTANIMFDRRVVRGNTYAARILPADATQTQTKGPSPASTKKRTTRTLPPRTPEAVDGRRHIDIQTDVYLEELTDTVPEADTSTQTDAFLDRPPTPLFVPQKTGTDAITQIENGDLFDFDFEVEPILEVLVGKVLEQGLMEVLEEEELAAMRAHQEHFEQIRNAELVATQRMEAAERRKLEEKERRMQQERERVERERVVRQKVAASAFARGYLSGIVNTVFDRLVSSGYIYDPVMREVETAFMPWLKEQAIGYLARGVVARRVVDKLVEDAAAALAANRSTLADKAASTAATVDAWAERQAKMEAELQGKELEAVRRRPTFVLRELKPAVASADAVEAAAAELTAQAEEAANAKWEA” here?
**A.** The value was “not soluble”.

**Q.** With “ARKLFVLDTNVLLHDPSSLFRFEEHDIFLPMMTLEELDHQKKGMSEVARNARQVSRSLDSLVQDADNLDDGLALNALGNKDATGRLMFQTTAIHSTLPSDLPMGKADNQILGVVRALQERHPQREVVLVSKDINMRLKARALGMAAEDYYNDHVLEDTDLMYS” as the sequence, how does the “soluble on expression in E. coli” value read?
**A.** The value was “not soluble”.

**Q.** With “MELKTSDVAARLGVSPKTIQRWVRKYDIPLRRNEAGHYLFDEKTVALLERVKFEQGAAMEAPPTPKRPPTPLRNNIPIDALHESIEPEIARVSSRLDQLERQLEQKADDVVSIQLLHHRQEMEEIVARLTALEQLVARLEQQLNTRPPAPHEPPEETKQKRRGLGRVMGLFA” as the sequence, how does the “soluble on expression in E. coli” value read?
**A.** Its value is “not soluble”.

**Q.** With “MKYMVVSSPIQEVLRLHKYIEISTTTITVKITNKMSSPVIGITFGNTSSSIAYINPKNDVDVIANPDGERAIPSALSYVGEDEYHGGQALQQLIRNPKNTIINFRDFIGLPFDKCDVSKCANGAPAVEVDGKVGFVISRGEGKEEKLTVDEVVSRHLNRLKLAAEDYIGSAVKEAVLTVPTNFSEEQKTALKASAAKIGLQIVQFINEPSAALLAHAEQFPFEKDVNVVVADFGGIRSDAAAIAVRNGIFTILATAHDLSLGGDNLDTELVEYFASEFQKKYQANPRKNARSLAKLKANSSITKKTLSNATSATISIDSLADGFDYHASINRMRYELVANKVFAQFSSFVDSVIAKAELDPLDIDAVLLTGGVSFTPKLTTNLEYTLPESVEILGPQNKNASNNPNELAASGAALQARLISDYDADELAEALQPVIVNTPHLKKPIGLIGAKGEFHPVLLAETSFPVQKKLTLKQAKGDFLIGVYEGDHHIEEKTLEPIPKEENAEEDDESEWSDDEPEVVREKLYTLGTKLMELGIK” as the sequence, how does the “soluble on expression in E. coli” value read?
**A.** Its value is “not soluble”.

**Q.** Which “soluble on expression in E. coli” value does the source give for “QVQLVASGGGSVQAGGSLRLSCAASGYTFSSYPMGWYRQAPGKECELSARIFSDGSANYADSVKGRFTISRDNAANTAYLQMDSLKPEDTAVYYCAAGPGSGKLVVAGRTCYGPNYWGQGTQVTVSS” here?
**A.** Its value is “soluble”.
